Positions count from the first letter of the chain named.

The test system of experiment [1] is human monomeric IL-8. Put plainly: human monomeric IL-8 mediated neutrophil chemotaxis. The experiment is classed as cell-based. How it is done:
Human neutrophils were isolated, counted and resuspended at 5×10^6 cells/ml in Hank's balanced salt solution (abbreviated HBSS; without calcium and magnesium) with 0.1% bovine serum albumin. The neutrophils were labeled by adding calcein AM (Molecular Probe, Eugene, Oreg.) at a final concentration of 2.0 μM. Following a 30 minute incubation at 37° C., cells were washed twice with HBSS-BSA and resuspended at 5×10^6 cells/ml.
Chemotaxis experiments were carried out in a Neuro Probe (Cabin John, Md.) 96-well chamber, model MBB96. Experimental samples (buffer only control, IL-8 alone or IL-8+Fabs) were loaded in a Polyfiltronics 96-well View plate (Neuro Probe Inc.) placed in the lower chamber. […]
The relative number of neutrophils migrating through the filter (Neutrophil migration index) was determined by measuring fluorescence intensity of the filter and the fluorescence intensity of the contents of the lower chamber and adding the two values together. Fluorescence intensity was measured with a CytoFluor 2300 fluorescent plate reader (Millipore Corp. Bedford, Mass.) configured to read a Corning 96-well plate using the 485-20 nm excitation filter and a 530-25 emission filter, with the sensitivity set at 3.

The target in experiment [2] is IL-8 (Homo sapiens, UniProt P10145). Description: KinEXA equilibrium and kinetic measurements. Type of experiment: binding. The settings on record: read-out: equilibrium constant (Kd). Here is the method: The beads were resuspended in assay buffer (0.1% bovine serum albumin in PBS) to a final volume of 30 ml.
The equilibrium constant (Kd) was calculated using the software provided by Sapidyne Instruments Inc.

Chain of IL-8 (P10145 28-99 limits assumed): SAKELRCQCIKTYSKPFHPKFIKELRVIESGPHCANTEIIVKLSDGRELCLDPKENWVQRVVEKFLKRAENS

B1: F(ab)-9: humanized variant, F(ab)-6 with GluH6Gln (protein)
light: DIQMTQSPSSLSASVGDRVTITCRSSQSLVHGIGNTYLHWYQQKPGKAPKLLIYKVSNRFSGVPSRFSGSGSGTDFTLTISSLQPEDFATYYCSQSTHVPLTFGQGTKVEIKRTVAAPSVFIFPPSDEQLKSGTASVVCLLNNFYPREAKVQWKVDNALQSGNSQESVTEQDSKDSTYSLSSTLTLSKADYEKHKVYACEVTHQGLSSPVTKSFNRGEC
heavy: EVQLVQSGGGLVQPGGSLRLSCAASGYSFSSHYMHWVRQAPGKGLEWVGYIDPSNGETTYNQKFKGRFTLSRDNSKNTAYLQMNSLRAEDTAVYYCARGDYRYNGDWFFDVWGQGTLVTVSSASTKGPSVFPLAPSSKSTSGGTAALGCLVKDYFPEPVTVSWNSGALTSGVHTFPAVLQSSGLYSLSSVVTVPSSSLGTQTYICNVNHKPSNTKVDKKVEPKSCDKTHT
As to B1, the IC50 in experiment [1] was about 15 nM.

B2: 6G4V11N35E IgG1: full length IgG1 version of humanized anti-IL8 variant 6G4V11N35E (protein)
light: B1 light with N35E
heavy: B1 heavy
Turning to B2, the Kd in experiment [2] was about 0.049 nM.

(Values after patent US6025158A, “Nucleic acids encoding humanized anti-IL-8 monoclonal antibodies” (Genentech, Inc., dated 2000).)
